Test results taken from the supplement of paper PMC10126150.
± gives the standard deviation of the averaged measurements.
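Also: ATP exposure 15 min at 22 °C before imaging.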

What follows are sequences tested on ATP (assay: switch fluorescence ratio, 500 uM ATP over buffer (Cy3 cluster intensity, sum of 5 cycles each) (fold (ratio)); higher = stronger signal-on switching upon ATP binding; sequences stand for … in TCGTCGGCAGCGTCAGATGTGTATAAGAGACAGTTTTTTTTTTTTTTTTTTTTTTTTT…TC). Conditions: aptamer strand: ATP DNA aptamer (quencher-CACCTGGGGGAGTATTGCGGAGGAAGG + anchor), 100 nM annealed; ATP concentration: 500 uM.
In short: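 Clusters with intensities outside 100-1000 RFU were excluded. The remaining Cy3-labelled switching-strand clusters on a modified Illumina MiSeq flow-cell had been annealed to 100 nM quencher-labelled ATP aptamer and imaged in selection buffer, then after 15 min with 500 uM ATP at 22 °C, for five cycles separated by NaOH stripping and re-annealing. The fluorescence ratio, averaged per switch-domain sequence, is each cluster's summed target-cycle Cy3 intensity over its summed buffer-cycle Cy3 intensity.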
TACTGAATTA was tested, and the switch fluorescence ratio was 1.03 ± 0.03.
GCTTGGACGG gave a switch fluorescence ratio of 1.02 ± 0.055.
Work on TATTTAGTCT yielded a switch fluorescence ratio of 1 ± 0.026.
Work on AAATCGTACG yielded a switch fluorescence ratio of 0.988 ± 0.048.
GGGGTTAAAG showed a switch fluorescence ratio of 0.977 ± 0.022.
In the case of GTTGCAGGGG, the switch fluorescence ratio is reported as 1.08 ± 0.013.
Sequence AAGTAGTAGT has a switch fluorescence ratio of 1.007 ± 0.0043.
With TACTAGGTTT the switch fluorescence ratio was 0.977 ± 0.019.
Work on TGTTTGTTGG yielded a switch fluorescence ratio of 0.9887 ± 0.009.
ATTATACTGG was tested, and the switch fluorescence ratio was 1 ± 0.033.
GCATTAGGGT was tested, and the switch fluorescence ratio was 1.02 ± 0.014.
Sequence GATTTAGGTA has a switch fluorescence ratio of 0.968 ± 0.027.
Work on ACTTTACGGC yielded a switch fluorescence ratio of 1.286 ± 0.0091.
Sequence AGGTGCTTGA has a switch fluorescence ratio of 0.975 ± 0.078.
In the case of GCTGTATGGC, the switch fluorescence ratio is reported as 1.01 ± 0.027.
With AACTCAAGGG the switch fluorescence ratio was 1.0096 ± 0.00058.
With CGGAAGAAAT the switch fluorescence ratio was 1.02 ± 0.017.
Work on GGGACGGGTG yielded a switch fluorescence ratio of 1.02 ± 0.025.
ATGCAGTCTA gave a switch fluorescence ratio of 1.017 ± 0.005.
ATGGCTACCG was tested, and the switch fluorescence ratio was 1.01 ± 0.033.
GGCCGAGGGG showed a switch fluorescence ratio of 1.01 ± 0.03.
In the case of TGGTGGGATC, the switch fluorescence ratio is reported as 1.03 ± 0.025.
ATGTGGGGGG was tested, and the switch fluorescence ratio was 0.992 ± 0.039.
Work on CTTGACTTTT yielded a switch fluorescence ratio of 1.015 ± 0.0014.
With GGGTTGAGTG the switch fluorescence ratio was 0.982 ± 0.028.
In the case of TTGATAAAGG, the switch fluorescence ratio is reported as 1.02 ± 0.026.
For GGTAGAGGGA, the switch fluorescence ratio was 0.9783 ± 0.0085.
TACGGGGTG was tested, and the switch fluorescence ratio was 1.05 ± 0.035.
Work on TTAGCGGCAG yielded a switch fluorescence ratio of 0.9883 ± 0.0034.
With GTGAAAAATT the switch fluorescence ratio was 0.9862 ± 0.0086.
Sequence TTTCAAATGT has a switch fluorescence ratio of 1.11 ± 0.17.
TTTTTTGC gave a switch fluorescence ratio of 0.955 ± 0.011.
With GGATCACTTA the switch fluorescence ratio was 1.02 ± 0.023.
TGCCAATATG was tested, and the switch fluorescence ratio was 1.06 ± 0.014.
AAAACTTGAA gave a switch fluorescence ratio of 1.07 ± 0.086.
Sequence AATTTAAAG has a switch fluorescence ratio of 0.992 ± 0.037.
Sequence AAGGGGAGGA has a switch fluorescence ratio of 0.989 ± 0.016.
Sequence ATGAGCGGGG has a switch fluorescence ratio of 0.98 ± 0.058.
CTGAAGGGGG showed a switch fluorescence ratio of 0.967 ± 0.058.
With TCTTCGGTTT the switch fluorescence ratio was 1.11 ± 0.12.
GAATCATATG showed a switch fluorescence ratio of 0.977 ± 0.011.
In the case of GAAGGAATGT, the switch fluorescence ratio is reported as 1 ± 0.022.
GCACGGGGCA gave a switch fluorescence ratio of 1.01 ± 0.023.
TGTTTTAGTT gave a switch fluorescence ratio of 1.01 ± 0.045.
Work on TTTTTAATGC yielded a switch fluorescence ratio of 0.979 ± 0.034.
AGGTGGGCGG was tested, and the switch fluorescence ratio was 0.969 ± 0.022.
GAACTAAGGA gave a switch fluorescence ratio of 0.9895 ± 0.0027.
In the case of TGTGTGTGTG, the switch fluorescence ratio is reported as 0.974 ± 0.017.
For AGAAAAAGGT, the switch fluorescence ratio was 1.01 ± 0.032.
Work on ATTCGGGGGT yielded a switch fluorescence ratio of 0.993 ± 0.023.
TTTTGATTCC gave a switch fluorescence ratio of 1.036 ± 0.009.
GGGTTTAGAG was tested, and the switch fluorescence ratio was 0.9877 ± 0.0093.
With TAAATAGGGT the switch fluorescence ratio was 1.05 ± 0.12.
In the case of AGTTATCTTA, the switch fluorescence ratio is reported as 1.02 ± 0.011.
TATCGGAGAG showed a switch fluorescence ratio of 0.9835 ± 0.0016.
Work on TTATTGCTGT yielded a switch fluorescence ratio of 0.989 ± 0.013.
TGATAATAGG showed a switch fluorescence ratio of 0.989 ± 0.021.
Sequence CGGAAATGGG has a switch fluorescence ratio of 1.023 ± 0.0022.
TTTTATAAGG gave a switch fluorescence ratio of 1.01 ± 0.023.
Work on CTATGTTGGT yielded a switch fluorescence ratio of 0.9562 ± 0.0062.
ATTATAAGGT showed a switch fluorescence ratio of 1.06 ± 0.0055.
For GCTAGAAATG, the switch fluorescence ratio was 0.978 ± 0.043.
With TTGTAATTAA the switch fluorescence ratio was 0.9963 ± 0.0096.
Sequence AGTTCGCTAA has a switch fluorescence ratio of 1.012 ± 0.003.
For AGGGCATAGG, the switch fluorescence ratio was 0.9652 ± 0.0066.
CGGATTCGGA was tested, and the switch fluorescence ratio was 1.012 ± 0.01.
With TTTGGATTGT the switch fluorescence ratio was 1.006 ± 0.0074.
CACGCATCAG showed a switch fluorescence ratio of 1.137 ± 0.011.
For CTCAAATATG, the switch fluorescence ratio was 1.002 ± 0.0051.
ATGGGTCTCG gave a switch fluorescence ratio of 0.966 ± 0.019.
For TCAGGGCATG, the switch fluorescence ratio was 1.04 ± 0.043.
AAAAAGTGGG gave a switch fluorescence ratio of 0.992 ± 0.039.
AGGATTTATA was tested, and the switch fluorescence ratio was 0.991 ± 0.086.
CAGGATCATG gave a switch fluorescence ratio of 1.11 ± 0.15.
Sequence GAGGGGCGCG has a switch fluorescence ratio of 0.997 ± 0.065.
With GATAGGGGTT the switch fluorescence ratio was 0.975 ± 0.022.
